Literature values, collected in PMC4452855.

Target: IFN-λ1 (Homo sapiens) (UniProt Q8IU54)
Chain of UniProt Q8IU54 (Q8IU54 20-200): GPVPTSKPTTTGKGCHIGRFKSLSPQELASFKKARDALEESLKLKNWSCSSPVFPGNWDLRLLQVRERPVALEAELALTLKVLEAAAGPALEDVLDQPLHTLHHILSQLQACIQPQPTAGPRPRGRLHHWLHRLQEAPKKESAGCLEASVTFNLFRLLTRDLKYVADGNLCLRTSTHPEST

Kd: 73 nM
Substance: sIFN-λR1 short splice variant (from UniProt Q8IU57)
